This is an account of results in patent publication US20120077731A1 (Ablynx, published 2012).

To fix the notation:
B1: Cyno IL-6R (receptor, cynomolgus monkey)
chain: EVARGVLTSLPGDSVTLTCPGGEPEDNATVHWVLRKPAEGSHLSRWAGVGRRLLLRSVQLHDSGNYSCYRAGRPAGTVHLLVDVPPEEPQLSCFRKSPLSNVVCEWGPRSTPSPTTKAVLLVRKFQNSPAEDFQEPCQYSQESQKFSCQLAVPEGDSSFYIVSMCVASSVGSKLSKTQTFQGCGILQPDPPANITVTAVARNPRWLSVTWQDPHSWNSSFYRLRFELRYRAERSKTFTTWMVKDLQHHCVIHDAWSGLRHVVQLRAQEEFGQGEWSEWSPEAMGTPWTESRSPPAENEVSTPTQAPTTNKDDDNILSGDSANATSLPVQDSSSVPLP
notes: also called cynomolgus monkey IL-6R; recombinant cyno sIL-6R

“And” between values parts separate entries of the source, which are not always exact repeats. Identical values can stand only once.

One test deals with T1, PMP20A11.
T1 construct: also called IL6R20A11; IL6R300; not shown: c-myc and (His)6 tags
Kind of test: competition ELISA: IL6R20A11 (0.4 nM) pre-incubated with a series of recombinant sIL-6R; free IL6R20A11 captured on biotinylated human sIL-6R on neutravidin.

Test [1] has as its target T2, Human soluble IL-6R (human, UniProt P08887 20-358).
T2 construct: Soluble recombinant form; biotinylated in some assays; also called hIL-6R; human IL-6R
T2 sequence (looked up): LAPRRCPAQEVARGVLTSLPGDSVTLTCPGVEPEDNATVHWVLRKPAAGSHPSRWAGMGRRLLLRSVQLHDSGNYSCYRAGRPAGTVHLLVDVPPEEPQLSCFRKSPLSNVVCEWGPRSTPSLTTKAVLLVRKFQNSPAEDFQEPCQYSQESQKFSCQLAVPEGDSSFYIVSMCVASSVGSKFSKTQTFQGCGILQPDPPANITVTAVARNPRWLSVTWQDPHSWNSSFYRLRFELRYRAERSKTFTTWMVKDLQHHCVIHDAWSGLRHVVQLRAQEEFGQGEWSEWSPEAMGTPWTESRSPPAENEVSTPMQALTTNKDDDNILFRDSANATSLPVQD
Nature of the test: Biacore off-rate, periplasmic extracts. (In general: SPR reads the build-up and loss of mass on a sensor chip optically.)

The target in test [2] is T2, Human soluble IL-6R. Nature of the test: Alphascreen, inhibition of bio-IL-6 binding to IL-6R. (Alpha assays give light when donor and acceptor beads are brought close together.)
Procedure: (§1) Finally streptavidin donor beads were added and after 1 hour incubator the plate was read on the Envision microplate reader.
Test [3] has as its target T2, Human soluble IL-6R. Nature of the test: inhibition of the IL-6/IL-6R interaction, summary table C-13.
Procedure: as §1
The target of test [4] is T2, Human soluble IL-6R. Nature of the test: Alphascreen IL-6/IL-6R competition with purified Nanobody; row EC50 of the table, axis [inhibitor], M; blocked ligand IL-6.
Test [5] concerns the target T3, Human membrane IL-6R on cells (human, UniProt P08887 20-468).
T3 sequence (looked up): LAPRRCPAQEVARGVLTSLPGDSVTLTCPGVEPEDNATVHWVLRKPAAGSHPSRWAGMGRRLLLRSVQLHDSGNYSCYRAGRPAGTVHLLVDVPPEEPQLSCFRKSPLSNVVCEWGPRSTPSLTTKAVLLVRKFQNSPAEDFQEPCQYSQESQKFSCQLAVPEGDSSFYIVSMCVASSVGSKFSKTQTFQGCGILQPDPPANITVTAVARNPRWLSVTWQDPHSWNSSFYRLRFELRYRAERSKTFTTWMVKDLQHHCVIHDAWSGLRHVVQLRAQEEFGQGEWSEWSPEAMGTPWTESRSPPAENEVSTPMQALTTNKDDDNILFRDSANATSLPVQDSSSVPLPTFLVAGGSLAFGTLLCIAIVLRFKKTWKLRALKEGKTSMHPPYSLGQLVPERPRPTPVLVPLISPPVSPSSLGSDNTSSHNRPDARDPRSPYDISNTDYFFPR
Nature of the test: cell-based or functional assay.

The target of test [6] is T2, Human soluble IL-6R. Kind of test: SPR Biacore 3000, IL-6R amine-coupled to CM5.
Procedure: (§2) Nanobodies were injected at 5 different concentrations between 1 and 50 nM. Flow rate was 45 μl/min in all experiments. Association and dissociation phase were 3 and 10 min, respectively. The chip was regenerated using Glycine/HCl pH 1.5.
Test [7] deals with T2, Human soluble IL-6R. Kind of test: Biacore off-rate, periplasmic extract.
Test [8] deals with T2, Human soluble IL-6R. Kind of test: Biacore, binding to IL-6R (parent value).
Test [9] has as its target T3, Human membrane IL-6R on cells. Nature of the test: cell-based or functional assay. The source holds these as a separate data set.
For test [10], the target named is T2, Human soluble IL-6R. Kind of test: Alphascreen, 100 nM Nanobody, 0.4 nM bio-IL-6R; competitor: reference Fab.
Test [11] deals with T2, Human soluble IL-6R. Nature of the test: competition for IL-6R, competitor reference Fab, summary table C-13.
In test [12] the target is T3, Human membrane IL-6R on cells. Nature of the test: cell-based or functional assay. This is another data set of the same source.
The next test deals with T4, Mouse IL-6R (mouse, UniProt P22272 20-364, limits assumed).
T4 construct: also called mouse sIL-6R
T4 sequence (looked up): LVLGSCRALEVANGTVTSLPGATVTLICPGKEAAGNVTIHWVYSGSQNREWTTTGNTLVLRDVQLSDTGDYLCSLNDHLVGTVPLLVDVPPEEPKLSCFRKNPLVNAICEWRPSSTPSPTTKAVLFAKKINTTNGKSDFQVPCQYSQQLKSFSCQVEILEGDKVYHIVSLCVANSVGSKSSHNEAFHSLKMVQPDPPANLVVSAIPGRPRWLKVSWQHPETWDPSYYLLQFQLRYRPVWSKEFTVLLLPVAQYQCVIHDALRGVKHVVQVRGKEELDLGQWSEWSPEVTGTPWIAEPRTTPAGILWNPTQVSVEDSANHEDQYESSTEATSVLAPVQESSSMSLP
Kind of test: ELISA: plate coated with 1 µg/ml mouse IL-6R, 500 nM Nanobody, anti-myc + anti-mouse-HRP.

For test [13], the target named is T2, Human soluble IL-6R. Nature of the test: Alphascreen IL-6/IL-6R competition (IL-6R 0.3 nM, bio-IL-6 3 nM); row EC50 of the fit table, axis [competitor], M; blocked ligand IL-6.
The target of test [14] is T2, Human soluble IL-6R. Nature of the test: summary table C-13 of Nanobody characteristics, Kd on IL-6R.
Procedure: as §2
Test [15] addresses T3, Human membrane IL-6R on cells. Kind of test: cell-based or functional assay. The source holds these as a separate data set.
In test [16] the target is T2, Human soluble IL-6R. Kind of test: Alphascreen IL-6/IL-6R competition (IL-6R 0.3 nM, bio-IL-6 3 nM); row EC50 of the fit table, axis [competitor], M; blocked ligand IL-6. This is another data set of the same source.
The test “Cyno IL-6R” concerns the target B1. Kind of test: SPR Biacore 3000, cyno IL-6R amine-coupled to CM5.
Procedure: Remaining reactive groups were inactivated. […] Each sample was injected for 4 min at a flow rate of 45 μl/min to allow for binding to chip-bound antigen. Next, binding buffer without Nanobody was sent over the chip at the same flow rate to allow for dissociation of bound Nanobody.

Procedure for Mouse IL-6R: Detection was performed with anti-myc and anti-mouse-HRP as first and second antibody respectively.

Regarding B1, the “IC50 (read off the curve)” value in the test with PMP20A11 was about 3 ng/mL.

B2: IL6R13 (VHH)
VHH: EVQLVESGGGLVQPGGSLRLSCAASGFTFDDYGMSWVRQAPGRATEWVSAISWNGNNTYYTESMKGRFTISRDNAKNTVYLQMNSLKPEDTAVYYCVKGSTAIVGVPPTYPDEYDYWGQGTQVTVSS
notes: also called PMP35H4; not shown: C-terminal c-myc and (His)6 tags
For the molecule B2, the koff (as a rule, the first-order rate constant of dissociation) was 0.00021 s⁻¹ in the test with Human soluble IL-6R [1]; 0.000121 s⁻¹ and 0.000109 s⁻¹ and 0.000178 s⁻¹ with Human soluble IL-6R [6]; 0.000178 s⁻¹ with Human soluble IL-6R [7]. Besides, the IC50 (usually the midpoint of a concentration-inhibition curve) amounted to 0.0477 nM in the test with Human soluble IL-6R [2], 0.05 nM with Human soluble IL-6R [3], 0.0505 nM with Human soluble IL-6R [4] and 0.0644 nM in the test with Human soluble IL-6R [13]. The “IC50 (nM) XG-1” value in test [5] turned out to be 1.4 nM. The Kd (in general, the equilibrium constant for the complex coming apart) was 0.5 nM and 0.8 nM in the test with Human soluble IL-6R [6]; 0.7 nM with Human soluble IL-6R [8]; 0.5 nM with Human soluble IL-6R [14]. Moreover, the kon (usually a measure of how fast the partners come together) with Human soluble IL-6R [6] was 231000 M⁻¹ s⁻¹ and 137000 M⁻¹ s⁻¹. For the same molecule, the “IC50 (nM), TF1 cell proliferation” value in test [9] is 5.2 nM. For the same molecule, in the test with Human soluble IL-6R [10], the “Residual reference-Fab binding to IL-6R (%)” value was found to be 25%. Also, in the test with Human soluble IL-6R [11], the “Ref Fab competition (%)” value came to 25%. In [12], the “IC50 (nM) + HSA, XG-1 cell proliferation” value turned out to be 1.3 nM. For the same molecule, in test [12], the “IC50 (nM), XG-1 cell proliferation” value is 1.4 nM. The binding result with Mouse IL-6R is “no binding (tested: 500 nM)”. In test [15], the “IC50 values (nM), XG-1 assay” value came out at 1.4 nM.

B3: IL6R03 (VHH)
VHH: EVQLVESGGGLVQAGGSLRLSCAASGSIFKVNAMGWYRQAPGKQRELVAGIISGGSTNYADSVKGRLTISRDNAKNTVYLQMNSLKPEDTAVYYCSFVTTNSDYDLGRDYWGQGTQVTVSS
notes: also called PMP31A4; not shown: C-terminal c-myc and (His)6 tags
For the molecule B3, the half-maximal inhibitory concentration (IC50) amounted to 0.716 nM in the test with Human soluble IL-6R [2], 0.72 nM in the test with Human soluble IL-6R [3], 0.105 nM in the test with Human soluble IL-6R [4] and 0.187 nM with Human soluble IL-6R [16]. Besides, the “IC50 (nM) XG-1” value in test [5] is 16.2 nM. Moreover, the dissociation constant (Kd) came to 3 nM with Human soluble IL-6R [6], 3 nM with Human soluble IL-6R [8], 4.4 nM with Cyno IL-6R and 3 nM in the test with Human soluble IL-6R [14]. For the same molecule, the koff in the test with Human soluble IL-6R [6] was 0.00147 s⁻¹ and 0.0016 s⁻¹; with Human soluble IL-6R [7], 0.0016 s⁻¹; in the test with Cyno IL-6R it was 0.00164 s⁻¹. The on-rate (kon) in the test with Human soluble IL-6R [6] came to 484000 M⁻¹ s⁻¹; with Cyno IL-6R, 370000 M⁻¹ s⁻¹. The “IC50 (nM), TF1 cell proliferation” value in test [9] stood at 62.1 nM. For the same molecule, the “Residual reference-Fab binding to IL-6R (%)” value with Human soluble IL-6R [10] worked out at 5%. Also, in the test with Human soluble IL-6R [11], the “Ref Fab competition (%)” value was determined as 5%. For the same molecule, in [12], the “IC50 (nM) + HSA, XG-1 cell proliferation” value was found to be 17.5 nM. Further, the “IC50 (nM), XG-1 cell proliferation” value in test [12] amounted to 16.2 nM. Moreover, the binding result in the test with Mouse IL-6R was “no binding (tested: 500 nM)”. Moreover, the “IC50 values (nM), XG-1 assay” value in [15] stood at 17 nM.
